Assay results: patent US20260055205A1 (published 2026)
Where a chain is given by its changes, count along the chain named. Numbers in names are those of the source.

B1: CD3.73 (bispecific antibody, V domains shown)
VH: EVQLLESGGGIVQPGGSLKLSCAASGFTFNTYAMNWVRQAPGKGLEWVARIRSKPNNYATYYADSVKDRFTISRDDSKNTVYLQMNNLKTEDTAVYYCVRHENFGNSYVSWFAHWGQGTLVTVSS
VL: ELVVTQEPSLTVSPGGTVTLTCRSSNGAVTSSNYANWVQQKPGQAPRGLIGGTNKRAPGTPARFSGSLLGGKAALTLSGVQPEDEAVYYCALWYPNLWVFGGGTKLTVL
notes: paTCE with PSMA.5; also called AC3402; Y52cP
B2: CD3.97 (bispecific antibody, V domains shown)
VH: B1 VH with P55Y, Y82G
VL: B1 VL
notes: paTCE with PSMA.5; also called AC3426; Y79G
B3: CD3.90 (bispecific antibody, V domains shown)
VH: B1 VH with P55Y, Y62Q
VL: B1 VL
notes: paTCE with PSMA.5; also called AC3419; Y59Q
B4: CD3.88 (bispecific antibody, V domains shown)
VH: B1 VH with P55Y, Y62D
VL: B1 VL
notes: paTCE with PSMA.5; also called AC3417; Y59D
B5: CD3.91 (bispecific antibody, V domains shown)
VH: B1 VH with P55Y, Y62G
VL: B1 VL
notes: paTCE with PSMA.5; also called AC3420; Y59G
B6: CD3.101 (bispecific antibody, V domains shown)
VH: B1 VH with P55Y, N87S
VL: B1 VL
notes: paTCE with PSMA.5; also called AC3430; N82bS
B7: CD3.106 (bispecific antibody, V domains shown)
VH: B1 VH with P55Y
VL: B1 VL with L69D
notes: paTCE with PSMA.5; also called AC3435; L67D
B8: CD3.95 (bispecific antibody, V domains shown)
VH: B1 VH with P55Y, D68G
VL: B1 VL
notes: paTCE with PSMA.5; also called AC3424; D65G
B9: CD3.89 (bispecific antibody, V domains shown)
VH: B1 VH with P55Y, Y62E
VL: B1 VL
notes: paTCE with PSMA.5; also called AC3418; Y59E
B10: CD3.74 (bispecific antibody, V domains shown)
VH: B1 VH with P55T
VL: B1 VL
notes: paTCE with PSMA.5; also called AC3403; Y52cT
B11: CD3.99 (bispecific antibody, V domains shown)
VH: B1 VH with P55Y, N87E
VL: B1 VL
notes: paTCE with PSMA.5; also called AC3428; N82bE
B12: CD3.84 (bispecific antibody, V domains shown)
VH: B1 VH with P55Y, A59T
VL: B1 VL
notes: paTCE with PSMA.5; also called AC3413; A56T
B13: CD3.105 (bispecific antibody, V domains shown)
VH: B1 VH with P55Y
VL: B1 VL with G70E
notes: paTCE with PSMA.5; also called AC3434; G68E
B14: CD3.79 (bispecific antibody, V domains shown)
VH: B1 VH with P55Y, N57E
VL: B1 VL
notes: paTCE with PSMA.5; also called AC3408; N54E
B15: CD3.98 (bispecific antibody, V domains shown)
VH: B1 VH with P55Y, Y82S
VL: B1 VL
notes: paTCE with PSMA.5; also called AC3427; Y79S
B16: CD3.109 (bispecific antibody, V domains shown)
VH: B1 VH with P55Y
VL: B1 VL with L68N
notes: paTCE with PSMA.5; also called AC3438; L66N
B17: CD3.83 (bispecific antibody, V domains shown)
VH: B1 VH with P55Y, A59G
VL: B1 VL
notes: paTCE with PSMA.5; also called AC3412; A56G
B18: CD3.78 (bispecific antibody, V domains shown)
VH: B1 VH with P55Y, N57D
VL: B1 VL
notes: paTCE with PSMA.5; also called AC3407; N54D
B19: CD3.87 (bispecific antibody, V domains shown)
VH: B1 VH with P55Y, Y61T
VL: B1 VL
notes: paTCE with PSMA.5; also called AC3416; Y58T
B20: CD3.86 (bispecific antibody, V domains shown)
VH: B1 VH with P55Y, Y61E
VL: B1 VL
notes: paTCE with PSMA.5; also called AC3415; Y58E
B21: CD3.96 (bispecific antibody, V domains shown)
VH: B1 VH with P55Y, Y82D
VL: B1 VL
notes: paTCE with PSMA.5; also called AC3425; Y79D
B22: CD3.82 (bispecific antibody, V domains shown)
VH: B1 VH with P55Y, Y58W
VL: B1 VL
notes: paTCE with PSMA.5; also called AC3411; Y55W
B23: CD3.92 (bispecific antibody, V domains shown)
VH: B1 VH with P55Y, Y62W
VL: B1 VL
notes: paTCE with PSMA.5; also called AC3421; Y59W
B24: CD3.108 (bispecific antibody, V domains shown)
VH: B1 VH with P55Y
VL: B1 VL with L68K
notes: paTCE with PSMA.5; also called AC3437; L66K
B25: CD3.80 (bispecific antibody, V domains shown)
VH: B1 VH with P55Y, Y58G
VL: B1 VL
notes: paTCE with PSMA.5; also called AC3409; Y55G
B26: CD3.77 (bispecific antibody, V domains shown)
VH: B1 VH with P55Y, N56E
VL: B1 VL
notes: paTCE with PSMA.5; also called AC3406; N53E
B27: CD3.81 (bispecific antibody, V domains shown)
VH: B1 VH with P55Y, Y58F
VL: B1 VL
notes: paTCE with PSMA.5; also called AC3410; Y55F
B28: CD3.75 (bispecific antibody, V domains shown)
VH: B1 VH with P55W
VL: B1 VL
notes: paTCE with PSMA.5; also called AC3404; Y52cW
B29: CD3.85 (bispecific antibody, V domains shown)
VH: B1 VH with P55Y, Y61D
VL: B1 VL
notes: paTCE with PSMA.5; also called AC3414; Y58D
B30: CD3.100 (bispecific antibody, V domains shown)
VH: B1 VH with P55Y, N87Q
VL: B1 VL
notes: paTCE with PSMA.5; also called AC3429; N82bQ
B31: CD3.102 (bispecific antibody, V domains shown)
VH: B1 VH with P55Y, N87Y
VL: B1 VL
notes: paTCE with PSMA.5; also called AC3431; N82bY
B32: CD3.93 (bispecific antibody, V domains shown)
VH: B1 VH with P55Y, A63K
VL: B1 VL
notes: paTCE with PSMA.5; also called AC3422; A60K
B33: CD3.107 (bispecific antibody, V domains shown)
VH: B1 VH with P55Y
VL: B1 VL with L68S
notes: paTCE with PSMA.5; also called AC3436; L66S
B34: CD3.94 (bispecific antibody, V domains shown)
VH: B1 VH with P55Y, A63P
VL: B1 VL
notes: paTCE with PSMA.5; also called AC3423; A60P
B35: CD3.104 (bispecific antibody, V domains shown)
VH: B1 VH with P55Y
VL: B1 VL with L69Q
notes: paTCE with PSMA.5; also called AC3433; L67Q

target: T1, human CD3 epsilon (human, UniProt P07766 23-126, limits assumed); experiment: Octet, crude lysate
T1 construct: also called huCD3e
T1 sequence (P07766 23-126 limits assumed): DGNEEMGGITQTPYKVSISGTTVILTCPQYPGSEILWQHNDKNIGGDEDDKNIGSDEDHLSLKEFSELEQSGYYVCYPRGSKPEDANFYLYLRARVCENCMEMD
Text: To achieve this, Pool 1 was created, which included 74 paTCE molecules, each containing PSMA.5 and one of the 74 CD3.23 mutation variants. Single mutations were chosen based on analyses including CD3.23 PTE score analysis (using internal PTE algorithm v12) and structural analysis. Structural considerations included: possible contact disruption, anticipated steric clashes, side chain charge maintenance and possible pockets filling. Stability and affinity of the individually expressed molecules in the form of crude lysate was evaluated by Octet (ForteBio).

Binder	Kd [nM]
B1	33.1
B2	121
B3	7.2
B4	63.2
B5	8.3
B6	4.8
B7	6.1
B8	5.4
B9	9.7
B10	11.1
B11	5.9
B12	10.7
B13	4.9
B14	8.3
B15	9.6
B16	8.3
B17	8.2
B18	7.4

Binder	Kd [nM]
B19	17.9
B20	183
B21	9.8
B22	7.8
B23	37.2
B24	3.2
B25	11.3
B26	575
B27	6.1
B28	10.5
B29	939
B30	7.1
B31	5.2
B32	8
B33	7.3
B34	8.2
B35	4.6
